Measurements as given in PMC5778458.
Where two headings read alike, the source gives them in different places.

T1: Cbf5p;Nop10p;Gar1p (Saccharomyces cerevisiae;Saccharomyces …, UniProt P33322;Q6Q547;P28007 1-483;1-58;1-205, ||)
T1 sequence 1: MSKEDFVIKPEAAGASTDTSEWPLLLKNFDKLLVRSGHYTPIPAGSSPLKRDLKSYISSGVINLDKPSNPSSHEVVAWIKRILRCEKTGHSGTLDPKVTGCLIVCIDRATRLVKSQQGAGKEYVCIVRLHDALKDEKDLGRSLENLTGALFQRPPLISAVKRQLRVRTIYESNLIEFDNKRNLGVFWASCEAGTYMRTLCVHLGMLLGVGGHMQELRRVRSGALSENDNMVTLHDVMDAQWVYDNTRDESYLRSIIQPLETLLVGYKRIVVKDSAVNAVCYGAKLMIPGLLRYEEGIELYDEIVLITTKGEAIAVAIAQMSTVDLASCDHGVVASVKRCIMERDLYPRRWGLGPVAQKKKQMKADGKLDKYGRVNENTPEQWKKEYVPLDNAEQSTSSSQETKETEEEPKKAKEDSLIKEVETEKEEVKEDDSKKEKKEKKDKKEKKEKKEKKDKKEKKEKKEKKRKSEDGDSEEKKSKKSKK
T1 sequence 2: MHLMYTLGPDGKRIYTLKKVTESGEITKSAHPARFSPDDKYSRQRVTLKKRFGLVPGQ
T1 sequence 3: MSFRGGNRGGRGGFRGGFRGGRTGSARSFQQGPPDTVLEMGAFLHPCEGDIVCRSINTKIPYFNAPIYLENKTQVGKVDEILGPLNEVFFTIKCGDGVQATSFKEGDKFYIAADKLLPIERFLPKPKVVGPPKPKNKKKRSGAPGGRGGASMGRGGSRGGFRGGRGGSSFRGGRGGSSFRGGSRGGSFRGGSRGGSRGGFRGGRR

T2: Cbf5p;Nop10p;Gar1p;Nhp2p (Saccharomyces cerevisiae;Saccharomyces …, UniProt P33322;Q6Q547;P28007;P32495 1-483;1-58;1-205;1-156, |||)
T2 sequence 1: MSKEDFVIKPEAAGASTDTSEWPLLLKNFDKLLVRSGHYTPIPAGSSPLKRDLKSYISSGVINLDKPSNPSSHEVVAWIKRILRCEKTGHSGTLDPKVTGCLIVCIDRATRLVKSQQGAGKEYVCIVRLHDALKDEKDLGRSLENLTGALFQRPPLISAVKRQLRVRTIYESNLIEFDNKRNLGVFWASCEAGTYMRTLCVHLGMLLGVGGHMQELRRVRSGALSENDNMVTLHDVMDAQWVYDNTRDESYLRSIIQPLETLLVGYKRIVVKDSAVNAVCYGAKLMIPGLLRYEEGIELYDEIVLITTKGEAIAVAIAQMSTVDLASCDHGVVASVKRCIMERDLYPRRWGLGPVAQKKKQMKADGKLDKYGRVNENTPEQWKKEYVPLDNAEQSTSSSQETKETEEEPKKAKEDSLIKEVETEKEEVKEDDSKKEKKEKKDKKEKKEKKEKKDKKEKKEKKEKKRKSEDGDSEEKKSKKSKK
T2 sequence 2: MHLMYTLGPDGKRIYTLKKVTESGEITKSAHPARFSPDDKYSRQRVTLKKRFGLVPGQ
T2 sequence 3: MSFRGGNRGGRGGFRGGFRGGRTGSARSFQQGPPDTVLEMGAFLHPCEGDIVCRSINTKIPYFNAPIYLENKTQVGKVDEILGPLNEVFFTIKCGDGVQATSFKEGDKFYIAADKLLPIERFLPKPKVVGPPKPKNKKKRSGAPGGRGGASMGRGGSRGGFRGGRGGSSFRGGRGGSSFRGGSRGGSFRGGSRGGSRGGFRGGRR
T2 sequence 4: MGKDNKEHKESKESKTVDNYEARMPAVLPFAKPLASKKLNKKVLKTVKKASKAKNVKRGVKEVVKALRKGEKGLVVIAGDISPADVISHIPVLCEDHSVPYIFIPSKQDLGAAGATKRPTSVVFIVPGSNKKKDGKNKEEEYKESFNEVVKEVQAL


Assays:
Experiment in all cases: filter binding
Cbf5p;Nop10p;Gar1p = target: T1, Cbf5p;Nop10p;Gar1p
Cbf5p;Nop10p;Gar1p;Nhp2p [1] = target: T2, Cbf5p;Nop10p;Gar1p;Nhp2p
Cbf5p;Nop10p;Gar1p;Nhp2p [2] = target: T2, Cbf5p;Nop10p;Gar1p;Nhp2p; remark: listed apart in the source
Cbf5p;Nop10p;Gar1p;Nhp2p [3] = target: T2, Cbf5p;Nop10p;Gar1p;Nhp2p; remark: listed apart in the source

Binder | Kd (Cbf5p;Nop10p;Gar1p) [nM] | Kd (Cbf5p;Nop10p;Gar1p;Nhp2p [2]) [nM] | also measured
GGGGACAACUGGCUUGUGGCAGCCA (mixed) [snR34 guide + 5' substrate RNA] | 50 ± 20 | – | Kd (Cbf5p;Nop10p;Gar1p;Nhp2p [1]): 53 ± 22 nM
GGGACGUCGGCUCUUCCUAUCAUACC (mixed) [snR34 delta Box ACA guide + 3' substrate RNA] | – | 150 ± 30 | –
GGGACGUCGGCUCUUCCUAUCAUACC (mixed) [snR34 delta Box H guide + 3' substrate RNA] | – | 90 ± 30 | –
GGGACGUCGGCUCUUCCUAUCAUACC (mixed) [snR34 guide + 3' substrate RNA] | 90 ± 20 | – | –
snR34 5' HP extended stem (structured_RNA) RNA: GGGAAUCAAAAAUUUAUUUUUUACACGGAAACGAUGCCACAGUUGACUGAACCUGUCUUCUAACAGUAGUUAAUUGCCAGUAUUUCCGUGUAAACAAGA | – | – | Kd (Cbf5p;Nop10p;Gar1p;Nhp2p [3]): 1.3 ± 0.5 nM
